Patent publication US20150086555A1
Read-outs that look alike come from different tables or passages of the source.

B1: TCN-523 (5248_A17) (antibody, V domains shown)
VH: QVQLVQSGAEVKKPGSSVKVSCKASGGSFSNYAFSWVRQAPGQGLEWMGGTIPLLGTTNYAQKFQGRVTISADQFTSTAYMELGSLRSEDTAVYYCTRRKMTTAFDSWGQGTLVTVSS
VL: QPVLTQPPSASASLGASVTLTCTLSSAYSNYKVDWYQQRPGKGPRFVMRVGTGGIVGSKGDGIPDRFSVLGSGLNRYLTIKNIQEEDESDYHCGADHGSGSNFVSPYVFGGGTKLTVL
B2: TCN-563 (5237_B21) (antibody, V domains shown)
VH: QVQLAQSGAEVKRPGSSVKVSCTASGGIFRKNAISWVRQAPGQGLEWMGGIIAVFNTANYAQKFQGRVKITADESGNTAYMELSSLRSDDTAVYYCASHPKYFYGSGSYPDFWGQGTLVTVSS
VL: QSALTQPRSVSGSPGQSVTISCTGSSSDVGASNSVSWYQQHPGKAPKLVIYDVTERPSGVPHRFSGSKSGNTASLTVSGLQPEDEADYFCCAYGGKYLVVFGGGTKVTVL
B3: TCN-504 (3251_K17) (antibody, V domains shown)
VH: QVQLQESGPGLVKPSETLSLTCAVSGVSISNIDFYWGWIRQPPGKGLEWIGNIYYTGITFYNPSLSSRVAISIDTSKNQFSLTLTSVTAADTAMYYCARHYGDSEAINDAFDIWGQGTMLTVSS
VL: EIVMTQSPATLSVSPGERATLSCRASQSVGNSLAWYQQRPGQAPRLLIYGASTRATGIPPRFSGSGSGTEFTLTISSLQTEDFAVYYCQQYINWRPLSFGGGTKVEIK

Experiments:
Details in all cases: remark: other sources report otherwise
[1] = molecular target: recombinant soluble homotrimeric HA, A/common magpie/Hong Kong/5052/07 H5N1 (Influenza A virus A/common magpie/Hong Kong/5052/2007(H5N1)); experiment: microarray, transfection SN IgG, trimeric HA
[2] = molecular target: T1, recombinant soluble homotrimeric HA of A/common magpie/Hong Kong/5052/07 (H5N1) (Influenza A virus A/common magpie/Hong Kong/5052/2007(H5N1)); experiment: HA microarray, BCC supernatant
[3] = molecular target: T1, recombinant soluble homotrimeric HA of …; experiment: trimeric HA microarray, transfection supernatant set 3
[4] = molecular target: T1, recombinant soluble homotrimeric HA of …; experiment: trimeric HA microarray, transfection supernatant set 2
[5] = molecular target: recombinant homotrimeric HA A/common magpie/Hong Kong/5052/07 H5N1 (Influenza A virus A/common magpie/Hong Kong/5052/2007(H5N1)); experiment: protein microarray, purified IgG, trimeric HA
[6] = molecular target: T1, recombinant soluble homotrimeric HA of …; experiment: trimeric HA microarray, transfection supernatant set 1
[7] = molecular target: T1, recombinant soluble homotrimeric HA of …; experiment: trimeric HA microarray, transfection supernatant set 4
[8] = molecular target: T1, recombinant soluble homotrimeric HA of …
[9] = molecular target: T1, recombinant soluble homotrimeric HA of …; experiment: HA microarray, control antibody

| Binder | Trimeric HA Binding: RLU [1] | Trimeric HA Binding: RLU [2] | Trimeric HA Binding: RLU [3] | Trimeric HA Binding: RLU [4] | Trimeric HA Binding: RLU [5] | Trimeric HA Binding: RLU [6] | Trimeric HA Binding: RLU [7] | Trimeric HA Binding: RLU [8] | Trimeric HA Binding: RLU [9] |
| --- | --- | --- | --- | --- | --- | --- | --- | --- | --- |
| B1 | 33900 RLU | 45800 RLU | 640 RLU | 7210 RLU | 20900 RLU | 6240 RLU | 2130 RLU | – | – |
| B2 | – | 27500 RLU | – | 52800 RLU | – | – | – | 20000 RLU | – |
| B3 | 37300 RLU | – | 17800 RLU | 16800 RLU | – | 29700 RLU | 8680 RLU | – | 17000 RLU |
